Experimental data as given in PMC6310021.

Molecular target: purified rat recombinant TG2 protein (transgelin-2) (rat) (UniProt Q5XFX0)
Assay: SPR

Chain of purified rat recombinant TG2 protein (transgelin-2) (rat) (Q5XFX0 whole entry): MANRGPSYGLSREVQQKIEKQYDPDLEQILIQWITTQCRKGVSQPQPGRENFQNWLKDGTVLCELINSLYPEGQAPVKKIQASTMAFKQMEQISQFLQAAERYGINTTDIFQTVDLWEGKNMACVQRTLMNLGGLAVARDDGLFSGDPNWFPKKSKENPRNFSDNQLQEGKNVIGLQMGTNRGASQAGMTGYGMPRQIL

ezrin (analyte in Biacore surface plasmon resonance) (from UniProt P31977 1-586) (natural protein)
Kd: 73.3 nM
